The results in this text go back to patent publication US12441790B2, “Binding proteins to the human thrombin receptor, PAR4” (MONASH UNIVERSITY, priority 2017, dated 2025).

“Also recorded” adds a separate entry of the source.

Experiment [1] concerns PAR4 peptide vs PAR1, PAR2 and PAR3 peptides. Briefly: ELISA specificity screening, PAR4 peptide vs PAR1, 2 or 3 peptide. To be noted: hybridoma supernatant. It counts as binding, human. Here is the method: 96-well ELISA plates were coated with 50 μl of antigen diluted to a concentration of 4 μg/ml in coating buffer (0.1M Sodium Hydrogen Carbonate (NaHCO3) (Merck, #1.06329.0500)). Plates were incubated overnight at 4° C.
Wells were then washed with an automated plate washer (300 μl 1×PBS, 3 times). The wells were blocked with 200 μl of blocking buffer (3% BSA/1×PBS (BSA: (Sigma, #1001647742)) for 1 hour at room temperature followed by washing as above.
50 μl of undiluted hybridoma cell culture supernatant was added into appropriate wells and incubated at room temperature for 1 hour followed by washing as above. […] Wells were washed as above. A set of substrate tablets (1×silver, 1×gold) into 20 ml of ddH20 by shaking vigorously on the thermomixer for 6 mins at room temperature. 50 μl of substrate ([…]™ p-Nitrophenyl phosphate Tablets (Sigma-Aldrich, N2770-50SET)) was added into each well and incubated for 20-25 mins at room temperature. […] Absorbance was read at 405 nm immediately after adding STOP solution with the ELISA reader, using the ‘RdrOle4’ software.
Hybridoma supernatants were initially screened for binding to the immunising PAR4 peptide sequence ([…]-KLH (SEQ ID NO: 4)) by antigen microarray, with binding determined by fluorescence intensity signal over background (signal from medium alone). […]
On the technique in general: In an ELISA, binding on a coated surface is turned into a signal by an enzyme label.

The target of experiment [2] is T1, hPAR4 peptide (Homo sapiens, UniProt Q96RI0).
T1 construct: host or cells: synthetic peptide
The experiment is described as follows: mAb capture SPR (Biacore, anti-mouse Fc capture). It counts as binding. The method, then: Biacore analysis was performed on a Biacore T200 using two different methods either an anti-mouse Fc capture approach or using a similar method as described above using the ProteoOn system.
A series S CM5 sensor chip was activated with standard EDC/NHS amine coupling chemistry using the manufacturers recommended protocol with Goat anti-mouse IgG Fc. Anti-hPAR4 mAbs were captured at 1-2 ug/ml for 2 minutes at 10 ul/minute on flow cell 2 (FC2) and flow cell 1 (FC1) was used as a reference channel. […] Blank injections of buffer alone were also performed. All injections were performed in duplicate and in a random order. After each capture/injection/dissociation cycle the chip was regenerated with a 30 second injection of 0.1M Glycine pH2.0.
For the mAb capture method low levels of ligand mAb and analyte hPAR4 were used in an attempt to produce a 1:1 binding interaction, this method has been used successfully to measure kinetics and affinity KD's (Kamat V and Rafique A (2017) Analytical Biochemistry 530:75-86), despite using a whole IgG.
(§1) The kinetics of the binding interaction between the mAbs and hPAR4 was measured using Surface Plasmon Resonance (SPR; Biacore) by two different methods: 1. Anti-mouse Fc mAb capture method and 2. Streptavidin (SA) chip to capture biotinylated peptide. The ka(on) rate and kd(off) rates and KD were measured and fitted to a Langmuir model using the Biacore evaluation software.
Background: In SPR one partner is held on a chip, and binding of the other changes the refractive index at the surface.

Experiment [3] has as its target T1, hPAR4 peptide. Briefly: ELISA of purified mAbs on hPAR4 peptide. It counts as binding. To be noted: dilutions of purified mAbs. Here is the method:
as §1
The experiment was completed with purified mAbs diluted in PBS instead of hybridoma supernatants.
The reactivity of seven purified anti-hPAR4 mAbs was analysed by ELISA (see Table 4).

For experiment [4], the system named is human isolated platelets. The experiment is described as follows: Binding to human platelets by flow cytometry. To be noted: 10 μg/ml, against isotype control. The method, then:
Human or mouse washed platelets (5×10^7/mL) were incubated with anti-PAR4 antibody (0.1 mg/ml) for 30 mins at 37° C. and then fixed with paraformaldehyde 1% v/v final concentration). The suspension was then centrifuged at 1000×g for 2 min to obtain the platelet pellet, which was then resuspended in modified Tyrode's buffer (12 mM NaHCO3, 10 mM HEPES pH 7.4, 137 mM NaCl, 2.7 mM KCl, 5.5 mM D-glucose, 1 mM CaCl2) containing a 1:50 dilution of an FITC-conjugated […] IgG. After 30 mins at room temperature, the samples were centrifuged again, and the platelet pellet was resuspended in modified Tyrode's buffer an analysed by use of a flow cytometer (FACSCalibur, BD Biosciences).
Clone 5A.RC3 was tested for binding to isolated human platelets in vitro. Analysis of binding was determined using flow cytometry. Isolated platelets were incubated with either mouse IgG1 (isotype control) or 5A.RC3 and tested for binding to PAR4. CD41a which is a marker expressed on platelets was used as a positive control.
The binding of five anti-PAR4 monoclonal antibodies to human platelets was examined by flow cytometry.
(In general: Flow cytometry measures light scatter and fluorescence of single cells or particles in a stream.)

For experiment [5], the system named is human isolated platelets. Briefly: Platelet phosphatidylserine exposure (annexin V binding). To be noted: pre-treatment 5 min; regardless of donor genotype. It counts as cell-based. Here is the method:
Platelet surface phosphatidylserine (PS) exposure was determined by measuring annexin V binding. Human isolated platelets (5×10^7/ml) were pre-treated with 5A.RC3 (5 mins) at the concentrations indicated and were incubated with Alexa Fluor 488-conjugated annexin-V (1:100) prior to stimulation with thrombin. After stimulation, platelets were resuspended in modified Tyrode's buffer for flow cytometry analysis (FACSCalibur, BD Biosciences).
Pro-coagulant activity in isolated human platelets was examined by measuring phosphatidylserine (PS) exposure in response to stimulation with PAR4-AP or thrombin (1 U/ml) The percentage of annexin V positive cells was measured. The platelets were pre-incubated with 5A.RC3 for 5 mins. […] The 10 min (final data point) is shown for simplicity.

T1 sequence (Q96RI0 35-54 limits assumed): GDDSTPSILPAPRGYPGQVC

B1: 5A.RC3: anti-PAR4 monoclonal antibody, IgG2a/K, VH SEQ ID NO:11 and VL SEQ ID NO:12 (antibody, V domains shown)
VH: QVQLVESGGGVVQPGRSLRLSCAASGFTLSNYGMHWVRQAPGKGLEWVSVIWYDGSNKHYADSVKGRFTISRDNSKNTLYLQMNSLRAEDTAVYYCARESIVEVLPPFDYWGQGTLVTVSS
VL: KIVLTQSPGTLSLSPGERVTLSCRASQRVRNNYLAWFQQKPGQAPRLFIYGASSRATGIPDRFSGSGSGTDFIFTISRLEPEDFAVYYCQQYGNSYTFGQGTKLEIK
modifications: VH of 5A.RC3; VL of 5A.RC3
Turning to B1, the “selectivity to human PAR4 peptide over PAR1, PAR2 and PAR3” value in experiment [1] amounted to 16 fold. In experiment [2], this molecule returned a ka of 330000 M⁻¹ s⁻¹ and a kd of 0.00487 s⁻¹. Further, the “reactivity with hPAR4 peptide by ELISA” value in experiment [3] was “very similar binding curves”. Also, the “binding to PAR4 on isolated human platelets” value in experiment [4] is on record as “binds human PAR4 in isolated platelets”. Also, in experiment [5], the “inhibition of thrombin-induced phosphatidylserine exposure” value is listed as “dose-dependently inhibited thrombin-induced phosphatidylserine exposure; also recorded: inhibited thrombin-induced phosphatidylserine exposure in a dose dependent manner”.
